Consider two molecules from patent US20260055195A1 (COUNCIL OF THE QUEENSLAND INSTITUTE OF MEDICAL RESEARCH, published 2026).

Experiment [1] has as its target T1, EphA3 expressed on tumour cell lines (LK63, U251, D270) (UniProt P29320 21-983).
T1 construct: whole, on cells; also called EphA3 on LK63 cells; EphA3 on U251 cells
T1 sequence (looked up): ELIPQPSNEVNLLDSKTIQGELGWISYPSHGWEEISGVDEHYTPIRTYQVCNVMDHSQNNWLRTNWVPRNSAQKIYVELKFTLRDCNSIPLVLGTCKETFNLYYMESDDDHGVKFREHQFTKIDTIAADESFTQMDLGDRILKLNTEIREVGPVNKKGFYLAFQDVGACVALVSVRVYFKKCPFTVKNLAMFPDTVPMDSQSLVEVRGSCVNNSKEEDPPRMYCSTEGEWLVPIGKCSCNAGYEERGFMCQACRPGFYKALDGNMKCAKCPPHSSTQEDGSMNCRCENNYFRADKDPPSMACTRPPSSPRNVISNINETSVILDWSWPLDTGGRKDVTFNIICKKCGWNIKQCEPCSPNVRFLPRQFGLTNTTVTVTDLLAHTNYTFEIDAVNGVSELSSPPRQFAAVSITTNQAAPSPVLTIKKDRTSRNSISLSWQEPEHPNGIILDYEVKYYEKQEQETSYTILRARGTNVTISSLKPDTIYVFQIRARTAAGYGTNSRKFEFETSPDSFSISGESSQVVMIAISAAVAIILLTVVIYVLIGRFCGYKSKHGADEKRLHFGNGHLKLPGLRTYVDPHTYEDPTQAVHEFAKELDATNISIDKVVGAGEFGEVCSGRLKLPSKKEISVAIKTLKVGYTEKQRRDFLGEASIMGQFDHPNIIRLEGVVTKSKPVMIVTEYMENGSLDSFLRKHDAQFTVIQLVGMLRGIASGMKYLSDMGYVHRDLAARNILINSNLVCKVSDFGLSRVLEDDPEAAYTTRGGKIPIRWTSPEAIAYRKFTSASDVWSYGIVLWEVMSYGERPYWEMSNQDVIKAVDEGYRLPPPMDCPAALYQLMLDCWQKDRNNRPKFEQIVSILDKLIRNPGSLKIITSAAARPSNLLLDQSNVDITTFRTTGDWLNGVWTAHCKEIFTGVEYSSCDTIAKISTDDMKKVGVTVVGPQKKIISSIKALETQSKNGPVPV
Kind of experiment: flow cytometry on glioma cell lines D270 and U251. (In general: In flow cytometry, cells or beads pass a laser one at a time.)

Experiment [2] deals with T1, EphA3 expressed on tumour cell lines …. Briefly: flow cytometry, subclone supernatant on LK63 cells.

B1: Clone 3C3-1 anti-EphA3 monoclonal antibody (antibody, V domains shown)
VH: QVQLQQSGAELARPGASVKMSCKSSGYTFTIYTIHWVKQRPGQGLEWIGYINPSSDYTNYNQKFKDKATLTADKSSTTAYMQLSSLTSEDSAVYYCVREGAYGNYDFAMDYWGQGTSVTVSS
VL: DVLMTQTPLSLPVSLGDQASISCRSSQNIVHNNGNTYLEWYLQKPGQSPKLLIYKVSNRFSGVPDRFSGSGSGTDFTLKISRVEAEDLGVYYCFQTSHVPYTFGGGTKLEIK
notes: Mouse hybridoma monoclonal, screened as subclone supernatant
Consider B1, for which the binding result in experiment [1] is on record as “binds”.

B2: Clone 2D4-1 anti-EphA3 monoclonal antibody (antibody, V domains shown)
VH: QVHLKESGPGLVAPSQSLSITCTVSGFSLTGYGVNWIRQPPGKNLEWLGMIWGDGSTDYNSVLKSRLSISKDNAKSQVFLEMNSLQTDDTANYYCARDRGISYYYAMDYWGQGTSVTVSS
VL: DIVLTQSPASLAVSLGQRATISCRASKSVSASGYSYLHWYQQKPGQPPKLLIFLAYNLGSGVPARFSGSGAGTDFTLNIHPVEEEDAATYYCQHSREFPLTFGAGTKLELK
notes: as for B1
As to B2, the binding result in experiment [2] is given as “binds”.
